Data from the supplement of paper PMC9732359.
± gives the uncertainty stated by the source.

Experiment: protein stability index of a GFP-peptide fusion (yeast GPS) (PSI 1-4); higher = more stable; sorted into four equal gates, so the index is relative within each strain
Settings: pdr5∆
In short: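 Sequencing reads from sorted gates were used to score each peptide. The library consisted of tiled 17-residue yeast protein peptides fused downstream of GFP on a Cherry-expressing plasmid, pooled and carried in yeast. Mid-log cultures in leucine-free medium were split into four equal gates by GFP/Cherry ratio, and each gate's plasmids were PCR-amplified and Illumina-sequenced. The protein stability index adds up, over all gates, the read frequency multiplied by the gate number.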

In order of rising protein stability index:
1. MEELGIVTPVEKAVEEK [RPT3]  1.11 ± 0.094
2. MDEMDNVIRSLEQEYRL [RMP1]  1.21 ± 0.025
3. MKLDDSSKTRNVLNRIQ [ITC1]  1.3 ± 0.051
4. NAELLDYLFHLLISLNI [YLR018C/POM34]  1.37 ± 0.031
5. LVFILAVVGNNMLLDPA [RRP42]  1.39 ± 0.076
6. LVSVVEAFIASGITDPY [FAS2]  1.39 ± 0.042
7. MAVKTGIAIGLNKGKKV [RPL36B]  1.49 ± 0.2
8. MFANMKVLGVKDMSPIL [LRP1]  1.52 ± 0.046
9. LVLDLLTWLSSFSVCKI [IRR1]  1.59 ± 0.05
10. NALTVGDFDKFDSLIKV [RPN9]  1.59 ± 0.11
11. MTSENPDVLLSRVINVV [RRP6]  1.61 ± 0.083
12. MAVGKNKRLSRGKKGLK [RPS1B]  1.62 ± 0.083
13. MRLIKRVRAESLHSNSF [YJL039C/NUP192]  1.64 ± 0.14
14. MTQRAIQSAESIKSQKE [SWI3]  1.74 ± 0.082
15. MQIFVKTLTGKTITLEV [RPS31]  1.76 ± 0.097
16. MRSKLEKLTLVTLSEIY [CSN9]  1.79 ± 0.035
17. LYQIDYLGTKVELPYGA [PRE1]  1.81 ± 0.079
18. MAQRVTFRRRNPYNTRS [RPL34A]  1.82 ± 0.047
19. LVTCEGSEEKAFVPKKR [SRP54]  1.85 ± 0.11
20. LWELALAFIPNILALNL [YML031W/NDC1]  1.86 ± 0.048
21. MFFIKDLSLNITLHPSF [RPB7]  1.97 ± 0.16
22. MSACVGQQSVEGKRIAF [RPO21]  1.97 ± 0.16
23. LVELMFIRSTNSWFDVT [FAS1]  1.98 ± 0.072
24. LYSVKFAPAHLGLKLAC [YGL100W/SEH1]  1.98 ± 0.049
25. NENSNCLLSIPKSTKGK [YML103C/NUP188]  1.99 ± 0.044
26. MLPPKSVKFTHIAHTLP [SSN2]  2 ± 0.05
27. MNNGSGRYLLTPPDDLH [SRB8]  2 ± 0.044
28. LVCGNDSSYQDIFAVNL [RET1]  2.04 ± 0.25
29. MGNTKVHCRISCQIAQP [RRP45]  2.04 ± 0.079
30. MGLGKTLQTISFLGYLR [ISW2]  2.06 ± 0.054
31. MHLMALHIHGSSNPLGI [COB]  2.1 ± 0.059
32. LYKLNDKIAVAVAGLTA [PRE9]  2.14 ± 0.052
33. MKTQRFVSNMGFDIQKS [SIR4]  2.24 ± 0.058
34. MRRNSKILNIIKCSQSS [POP5]  2.27 ± 0.082
35. MCHIVRKFHELNDHIDD [GRR1]  2.31 ± 0.071
36. LVLGEVSKKELYAIKKV [BRR2]  2.37 ± 0.096
37. MYILGMCVSKGNASLKY [YCG1]  2.42 ± 0.12
38. MDFLNSMENTPKVPVSA [GAL11]  2.45 ± 0.11
39. MAGKVLILTSHNMKAYY [BRR2]  2.46 ± 0.058
40. LVVIRFGRKNDRQCMIM [DIB1]  2.55 ± 0.055
41. MSDFVPIDAGLNEAPFP [MCD1]  2.56 ± 0.05
42. MAKQLIRLANESSELNK [CSN12]  2.62 ± 0.064
43. NAVTAAAANNNIKPVEQ [GAL11]  2.66 ± 0.051
44. MNLQNNVLNQIHQILLP [CSE2]  2.73 ± 0.071
45. MVSHKTARGKAALERLK [RPL16B]  2.74 ± 0.15
46. LVETCLNDLVESSFIEI [BRR2]  2.75 ± 0.063
47. MFDAFVSFYFEDGTIES [SIN4]  2.76 ± 0.062
48. MKVLEERNAFLSDYEVL [RPC17]  2.77 ± 0.27
49. LVQLFLWDSKELEQLVE [RPN3]  2.78 ± 0.084
50. MDQDNNNHNDSNRLHPP [GRR1]  2.79 ± 0.062
51. LVSDSEIIDLNLHSFTK [POP6]  2.81 ± 0.069
52. NENENFGYDIPLLDIVL [YML103C/NUP188]  2.81 ± 0.064
53. MLGHYLGEFSITYTPVR [RPS15]  2.83 ± 0.073
54. MPGSQINSPMPQQAQMQ [SNF2]  2.87 ± 0.096
55. NEIANSIIQSKQDCVDW [BRR2]  2.87 ± 0.071
56. LYRLSTPLRDEVTDKNY [PRP8]  2.88 ± 0.066
57. MVGLVDPDKLKPNDLVG [RPT5]  2.94 ± 0.14
58. MNAILTDVKLTLPQPRL [SMD1]  2.96 ± 0.097
59. NDNNLKKLESQESLVKL [RPN5]  2.96 ± 0.064
60. MVKGLLKSFTESTAGSA [ECM29]  2.97 ± 0.18
61. MGEAQTGANFDDVERGV [REC8]  2.98 ± 0.11
62. MAMNITPRLYTDRSRDF [RPB2]  3 ± 0.087
63. MARGPKKHLKRLAAPHH [RPS4A]  3 ± 0.087
64. MKSLLTELSNKETTIEK [YIL149C/MLP2]  3 ± 0.12
65. MSLEPTQTVSGTPPMLH [DSN1]  3 ± 0.12
66. MKYTQYPNSSKLKRNSD [LIN1]  3.03 ± 0.079
67. NCPHSDSTQLLETILEE [SSN2]  3.1 ± 0.088
68. NDRKQTTVSNDLENSPL [SSN2]  3.11 ± 0.056
69. MEWPKDMLKYKEDEPVV [ITC1]  3.12 ± 0.14
70. MNVTPLDELQWKSPEWI [MED6]  3.14 ± 0.1
71. MTIDLEPIEESSQNNSE [IRR1]  3.14 ± 0.056
72. NDSKEESTTEATGNESQ [YLR335W/NUP2]  3.14 ± 0.18
73. MDAYSTRPLTLSHGSLE [FAS1]  3.15 ± 0.1
74. MSDSPLSKRQKRKSAQE [SMC4]  3.16 ± 0.11
75. NEEATPIPSSETKADGI [RRP6]  3.18 ± 0.058
76. MDVDIGCYFEEKRYDDK [CSN12]  3.19 ± 0.15
77. MPGMPNMPGMPKVTPQM [SRP54]  3.2 ± 0.21
78. NESSSNTTVISDKQRRL [DIS3]  3.21 ± 0.086
79. NDLRDMILNYNPSQGVS [UBP6]  3.23 ± 0.12
80. MGKSHGYRSRTRYMFQR [RPL21A]  3.25 ± 0.093
81. MSTKAQNPMRDLKIEKL [RPL11B]  3.25 ± 0.11
82. MVQQLSLFGSIGDDGYD [SRB5]  3.26 ± 0.13
83. MTRSSVLADALNAINNA [RPS22A]  3.27 ± 0.056
84. MAAEKILTPESQLKKSK [RPL7A]  3.28 ± 0.28
85. NEAEQVYLSLLDKDSSQ [RPN6]  3.29 ± 0.076
86. MEQCKQRYQDLSQQQKD [YIL149C/MLP2]  3.3 ± 0.074
87. MATNKIETLDPALIRPG [RPT2]  3.31 ± 0.12
88. MKYVRETSGVTTALLKD [MED8]  3.31 ± 0.12
89. MSLTTAAPLLALLRENQ [RPN2]  3.31 ± 0.25
90. NDFANNLPKEGDIVLTR [CSL4]  3.32 ± 0.17
91. MDFFNLNNNNNNNNTTT [SWI1]  3.33 ± 0.081
92. MAKRTKKVGITGKYGVR [RPL43A]  3.34 ± 0.094
93. MKPKAEKESDDGLLEYL [SMC4]  3.37 ± 0.16
94. MKRADKFKDMGIRAPKG [RPT5]  3.38 ± 0.16
95. NAKDKERLQLLEDVVGA [SMC3]  3.38 ± 0.13
96. LVDDENEPSQSLISTRN [BRN1]  3.4 ± 0.064
97. NEGLVEYIDAEEEESIL [RPB2]  3.46 ± 0.085
98. NAKESNYTDLIWFPEDF [MED1]  3.47 ± 0.17
99. MSEEQDPLLAGLGETSG [RPT4]  3.55 ± 0.17
100. NENETRDKVCKQINEAR [PGD1]  3.58 ± 0.19
